Values joined by “and” are separate entries in the source; they are usually repeats but may differ in a detail not shown here. Equal values may be shown once.

1 protein from FireProtDB (doi:10.1002/cbic.201402128) can be followed below.

The conditions of this data set: Sphingobium indicum (strain DSM 16413 / CCM 7287 / MTCC 6362 / UT26 / NBRC 101211 / UT26S); pH 7.5; Thermal; fluorescence; Na-Hepes 50 mM; reversible: no; whole UniProt chain shown.

B1: Haloalkane dehalogenase wild type, D4Z2G1 (protein)
chain: MSLGAKPFGEKKFIEIKGRRMAYIDEGTGDPILFQHGNPTSSYLWRNIMPHCAGLGRLIACDLIGMGDSDKLDPSGPERYAYAEHRDYLDALWEALDLGDRVVLVVHDWGSALGFDWARRHRERVQGIAYMEAIAMPIEWADFPEQDRDLFQAFRSQAGEELVLQDNVFVEQVLPGLILRPLSEAEMAAYREPFLAAGEARRPTLSWPRQIPIAGTPADVVAIARDYAGWLSESPIPKLFINAEPGALTTGRMRDFCRTWPNQTEITVAGAHFIQEDSPDEIGAAIAAFVRRLRPA
As usually defined, the Tm is the temperature at the midpoint of the melting transition. With B1, the midpoint of thermal melting (Tm) was 51 °C and 49 °C.
